# Measurements reported in patent US9580508B2, “Bispecific EGFR/c-Met antibodies” (Janssen Biotech, Inc., priority 2012, dated 2017).
# Test system: not listed separately
# Assay: Differential scanning calorimetry in PBS (thermal stability)
# Format: physicochemical
# Conditions: DSC in PBS
# Source text: A subset of the EGFR binding FN3 domains was engineered to increase the conformational stability of each molecule. […] The new mutants, P54AR5-83v2, P54CR431-v2, and P54AR4-37v2 were expressed and purified as described above. Differential scanning calorimetry in PBS was used to assess the stability of each mutant in order to compare it to that of the corresponding parent molecule.
# Thermal Stability of c-Met-binding FN3 Domains Differential Scanning Calorimetry in PBS was Used to Assess the Stability of Each FN3 Domain.
Molecule,Tm (° C.) [°C],"Thermal Stability (Tm, C.) [C.]"
"P54CR4-31: EGFR-binding FN3 domain, SEQ ID NO: 26 (protein, EGFR binding FN3 domain) LPAPKNLVVSEVTEDSLRLSWTAPDAAFDSFLIQYQESEKVGEAINLTVPGSERSYDLTGLKPGTEYTVSIYGVLGSYVFEHDVMLPLSAEFTT",60.9,–
"P54CR4-31v2: stabilized EGFR-binding FN3 domain, SEQ ID NO: 28 (protein, EGFR binding FN3 domain) LPAPKNLVVSEVTEDSARLSWTAPDAAFDSFLIQYQESEKVGEAIVLTVPGSERSYDLTGLKPGTEYTVSIYGVLGSYVFEHDVMLPLSAIFTT",78.9,–
"P54AR4-83: EGFR-binding FN3 domain, SEQ ID NO: 25 (protein, EGFR binding FN3 domain) LPAPKNLVVSEVTEDSLRLSWDDPWAFYESFLIQYQESEKVGEAINLTVPGSERSYDLTGLKPGTEYTVSIYGVHNVYKDTNMRGLPLSAEFTT",50.6,–
"P54AR4-37v2: stabilized EGFR-binding FN3 domain, SEQ ID NO: 29 (protein, EGFR binding FN3 domain) LPAPKNLVVSEVTEDSLRLSWTWPYADLDSFLIQYQESEKVGEAINLTVPGSERSYDLTGLKPGTEYTVSIYGVHNVYKDTNMRGLPLSAEFTT",64.2,–
"P54AR4-37: EGFR-binding FN3 domain, listed with SEQ ID NO: 22 in Table 6 (protein, EGFR binding FN3 domain) LPAPKNLVVSEVTEDSLRLSWTWPYADLDSFLIQYQESEKVGEAINLTVPGSERSYDLTGLKPGTEYTVSIYGVHNVYKDTNMRGLPLSAEFTT",45.9,–
"P114AR7P92-G8: c-Met-binding FN3 domain, SEQ ID NO: 36 (protein, c-Met binding FN3 domain) LPAPKNLVVSRVTEDSARLSWTAPDAAFDSFVIRYFEFLGSGEAIVLTVPGSERSYDLTGLKPGTEYVVQILGVKGGYISIPLSAIFTT",–,90.9
"P114AR7P93-H9: c-Met-binding FN3 domain, SEQ ID NO: 40 (protein, c-Met binding FN3 domain) LPAPKNLVVSRVTEDSARLSWTAPDAAFDSFWIRYFEFLGSGEAIVLTVPGSERSYDLTGLKPGTEYVVQIIGVKGGHISLPLSAIFTT",–,88.2
"P114AR7P95-G7: c-Met-binding FN3 domain, SEQ ID NO: 48 (protein, c-Met binding FN3 domain) LPAPKNLVVSRVTEDSARLSWTAPDAAFDSFWIRYFELLSTGEAIVLTVPGSERSYDLTGLKPGTEYVVNIMGVKGGSISPPLSAIFTT",–,87.2
"P114AR7P92-H5: c-Met-binding FN3 domain, SEQ ID NO: 37 (protein, c-Met binding FN3 domain) LPAPKNLVVSRVTEDSARLSWTAPDAAFDSFWIRYLEFLLGGEAIVLTVPGSERSYDLTGLKPGTEYVVQIMGVKGGTVSPPLSAIFTT",–,87
"P114AR7P95-D4: c-Met-binding FN3 domain, SEQ ID NO: 45 (protein, c-Met binding FN3 domain) LPAPKNLVVSRVTEDSARLSWTAPDAAFDSFWIRYFEFLGSGEAIVLTVPGSERSYDLTGLKPGTEYVVQILGVKGGYISIPLSAIFTT",–,85.3
"P114AR7P95-H8: c-Met-binding FN3 domain, SEQ ID NO: 49 (protein, c-Met binding FN3 domain) LPAPKNLVVSRVTEDSARLSWTAPDAAFDSFWIRYFEFVSKGEAIVLTVPGSERSYDLTGLKPGTEYVVNIMGVKGGSISPPLSAIFTT",–,83
"P114AR7P94-A3: c-Met-binding FN3 domain, SEQ ID NO: 41 (protein, c-Met binding FN3 domain) LPAPKNLVVSRVTEDSARLSWTAPDAAFDSFWIRYFEFLGSGEAIVLTVPGSERSYDLTGLKPGTEYVVNIMGVKGGKISPPLSAIFTT",–,86.2
"P114AR5P74-A5: c-Met-binding FN3 domain, SEQ ID NO: 32 (protein, c-Met binding FN3 domain) LPAPKNLVVSRVTEDSARLSWTAPDAAFDSFWIRYDEVVVGGEAIVLTVPGSERSYDLTGLKPGTEYYVNILGVKGGSISVPLSAIFTT",–,74.1
"P114AR7P95-F10: c-Met-binding FN3 domain, SEQ ID NO: 47 (protein, c-Met binding FN3 domain) LPAPKNLVVSRVTEDSARLSWTAPDAAFDSFWIRYFEFTTAGEAIVLTVPGSERSYDLTGLKPGTEYVVNIMGVKGGSISPPLSAIFTT",–,85.2
"P114AR7P94-E5: c-Met-binding FN3 domain, SEQ ID NO: 42 (protein, c-Met binding FN3 domain) LPAPKNLVVSRVTEDSARLSWTAPDAAFDSFWIRYFEFLGSGEAIVLTVPGSERSYDLTGLKPGTEYAVNIMGVKGGRVSVPLSAIFTT",–,80
"P114AR7P92-F6: c-Met-binding FN3 domain, SEQ ID NO: 35 (protein, c-Met binding FN3 domain) LPAPKNLVVSRVTEDSARLSWTAPDAAFDSFWIRYFEFLGSGEAIVLTVPGSERSYDLTGLKPGTEYVVNILGVKGGGLSVPLSAIFTT",–,76.8
"P114AR7P93-G8: c-Met-binding FN3 domain, SEQ ID NO: 39 (protein, c-Met binding FN3 domain) LPAPKNLVVSRVTEDSARLSWTAPDAAFDSFWIRYFEFLGSGEAIVLTVPGSERSYDLTDLKPGTEYGVTINGVKGGRVSTPLSAIFTT",–,76.8

# Test system: NCI-H292 cells
# Assay: HGF-induced NCI-H292 cell proliferation
# Format: cell-based, human
# Conditions: read-out: H292-HGF Proliferation inhibition in HGF-induced H292 cells (IC50)
# Source text: The proliferation assay was completed using different combinations EGFR and c-Met binding FN3 domains either as a mixture or linked in a bispecific format. […] This confirmed that the avidity effect observed at the level of the receptors (FIG. 4 and FIG. 5) translates into an improvement in inhibiting cell signaling (Table 12) and cell proliferation (Table 13).
# Select bispecific EGFR/c-Met molecules were characterized for their affinity to both EGFR and c-Met, their ability to inhibit EGFR and c-Met autophosphorylation, and their effect on proliferation of HGF cells. Binding affinity of the bispecific EGFR/c-Met molecules to recombinant EGFR and/or c-Met extracellular domain was further evaluated by surface Plasmon resonance methods using a Proteon Instrument (BioRad) according to protocol described in Example 3.
row,IC50 [nM],Molecule
1,29.6,"ECB94: bispecific FN3: P54AR4-83v22-(AP)5-P114AR7P94-A3v22, SEQ ID NO: 61 (protein, bispecific EGFR/cMet binding molecule) MLPAPKNLVVSEVTEDSARLSWDDPWAFYESFLIQYQESEKVGEAIVLTVPGSERSYDLTGLKPGTEYTVSIYGVHNVYKDTNIRGLPLSAIFTTAPAPAPAPAPLPAPKNLVVSRVTEDSARLSWTAPDAAFDSFWIRYFEFLGSGEAIVLTVPGSERSYDLTGLKPGTEYVVNILGVKGGKISPPLSAIFTT"
2,31,"ECB97: bispecific FN3: P54AR4-83v22-(AP)5-P114AR7P95-C5v2, SEQ ID NO: 64 (protein, bispecific EGFR/cMet binding molecule) MLPAPKNLVVSEVTEDSARLSWDDPWAFYESFLIQYQESEKVGEAIVLTVPGSERSYDLTGLKPGTEYTVSIYGVHNVYKDTNIRGLPLSAIFTTAPAPAPAPAPLPAPKNLVVSRVTEDSARLSWTAPDAAFDSFWIRYFEFLGSGEAIVLTVPGSERSYDLTGLKPGTEYVVNILSVKGGSISPPLSAIFTT"
3,9480,"ECB96: bispecific FN3: P54AR4-83v22-(AP)5-P114AR9P122-A7v2, SEQ ID NO: 63 (protein, bispecific EGFR/cMet binding molecule) MLPAPKNLVVSEVTEDSARLSWDDPWAFYESFLIQYQESEKVGEAIVLTVPGSERSYDLTGLKPGTEYTVSIYGVHNVYKDTNIRGLPLSAIFTTAPAPAPAPAPLPAPKNLVVSRVTEDSARLSWTAPDAAFDSFWIRYFEFVSKGDAIVLTVPGSERSYDLTGLKPGTEYVVNILGVKGGSISPPLSAIFTT"
4,383,"ECB95: bispecific FN3: P54AR4-83v22-(AP)5-P114AR9P121-A6v2, SEQ ID NO: 62 (protein, bispecific EGFR/cMet binding molecule) MLPAPKNLVVSEVTEDSARLSWDDPWAFYESFLIQYQESEKVGEAIVLTVPGSERSYDLTGLKPGTEYTVSIYGVHNVYKDTNIRGLPLSAIFTTAPAPAPAPAPLPAPKNLVVSRVTEDSARLSWTAPDAAFDSFWIRYFEFVGSGEAIVLTVPGSERSYDLTGLKPGTEYVVNILGVKGGSISPPLSAIFTT"
